Drawing on the RNAGym collection of RNA variant scans (doi:10.7554/elife.90254), this text covers self-cleavage for 167 variants.

B1: LINE1-mini (parent)
chain: GGCAGAGCUCAACACAGCGUGGCAAAGUGGCUGUGGCUAGACUGCC

This data set covers variants of B1. Kind of data set: self-cleavage, relative activity (ratio to wild type); higher = more cleavage; in vitro, sequencing; the parent is a self-cleaving ribozyme.
For the variant C10U G35U, the self-cleavage is 0.05.

As to C10U G35A, the self-cleavage was 0.08.

C10U G35C: the self-cleavage amounted to 0.04.

As to A11C G19C, the self-cleavage worked out at 0.08.

For A11C G19A, the self-cleavage came out at 0.05.

Consider A11C G19U, for which the self-cleavage was 0.04.

Regarding A11C A14U, the self-cleavage came to 0.03.

On to A11C A14G, for which the self-cleavage was found to be 0.04.

Consider A11C A14C, for which the self-cleavage amounted to 0.02.

Consider C10U U34G, for which the self-cleavage amounted to 0.32.

Consider C10U U34A, for which the self-cleavage is 0.14.

C10U U34C: the self-cleavage came out at 0.08.

On to A11C A24U, for which the self-cleavage stood at 0.11.

As to A11C A24G, the self-cleavage was 0.06.

A11C A24C: the self-cleavage was found to be 0.04.

In the case of A11C C31U, the self-cleavage was determined as 0.03.

A11C C31G: the self-cleavage amounted to 0.01.

Consider A11C C31A, for which the self-cleavage is 0.02.

In the case of C10U G22C, the self-cleavage was 0.18.

Regarding C10U G22U, the self-cleavage turned out to be 0.42.

For the variant C10U G22A, the self-cleavage stood at 0.25.

Take C10U U43G: the self-cleavage was found to be 0.19.

With C10U U43C, the self-cleavage came to 0.03.

On to C10U U43A, for which the self-cleavage amounted to 0.04.

For C10U C45U, the self-cleavage stood at 0.23.

Consider C10U C45G, for which the self-cleavage was 0.15.

As to C10U C45A, the self-cleavage was found to be 0.15.

With A11C C23U, the self-cleavage amounted to 0.05.

In the case of A11C C23G, the self-cleavage was 0.06.

For the variant A11C C23A, the self-cleavage came out at 0.07.

For C10U G30C, the self-cleavage was 0.36.

In the case of C10U G30U, the self-cleavage amounted to 0.59.

In the case of C10U G30A, the self-cleavage came to 0.54.

With A11C C46A, the self-cleavage turned out to be 0.03.

For A11C C46U, the self-cleavage amounted to 0.11.

Consider A11C C46G, for which the self-cleavage was found to be 0.02.

As to C10U C13A, the self-cleavage is 0.06.

For C10U C13G, the self-cleavage amounted to 0.09.

Take C10U C13U: the self-cleavage amounted to 0.06.

Regarding C10U A14U, the self-cleavage amounted to 0.14.

Take C10U A14G: the self-cleavage came to 0.22.

Turning to C10U C42A, the self-cleavage came out at 0.05.

For C10U C42U, the self-cleavage turned out to be 0.1.

Consider C10U C42G, for which the self-cleavage is 0.05.

As for C10U A26U, the self-cleavage is 0.31.

On to C10U A26C, for which the self-cleavage was found to be 0.31.

On to C10U A26G, for which the self-cleavage was 0.4.

Consider C10U A41G, for which the self-cleavage stood at 0.07.

With C10U A41C, the self-cleavage amounted to 0.03.

Take C10U A41U: the self-cleavage was determined as 0.16.

Take C10U C46A: the self-cleavage came out at 0.33.

Turning to C10U C46G, the self-cleavage is 0.32.

Turning to C10U C46U, the self-cleavage is 0.21.

On to C10U U20C, for which the self-cleavage was 0.28.

Turning to C10U U20G, the self-cleavage is 0.18.

As to C10U U20A, the self-cleavage turned out to be 0.18.

Take A11C G21U: the self-cleavage turned out to be 0.1.

A11C G21A: the self-cleavage turned out to be 0.26.

Regarding A11C G21C, the self-cleavage was 0.08.

For the variant A11C C18A, the self-cleavage is 0.02.

With A11C C18G, the self-cleavage turned out to be 0.05.

In the case of A11C C18U, the self-cleavage was 0.04.

For C10U G17U, the self-cleavage was found to be 0.33.

As for C10U G17A, the self-cleavage was found to be 0.34.

Regarding C10U G17C, the self-cleavage was 0.61.

As to A11C C45A, the self-cleavage was determined as 0.05.

With A11C C45U, the self-cleavage was 0.12.

As to A11C C45G, the self-cleavage amounted to 0.02.

A11C C42A: the self-cleavage stood at 0.02.

As for A11C C42G, the self-cleavage was 0.03.

On to A11C C42U, for which the self-cleavage came out at 0.02.

On to C10U C23U, for which the self-cleavage was 0.43.

In the case of C10U C23A, the self-cleavage amounted to 0.43.

C10U C23G: the self-cleavage was determined as 0.26.

For C10U A24G, the self-cleavage was 0.35.

As to C10U A24U, the self-cleavage amounted to 0.48.

C10U A24C: the self-cleavage came to 0.11.

Turning to C10U G33U, the self-cleavage was 0.04.

Regarding C10U G33A, the self-cleavage was determined as 0.05.

With C10U G33C, the self-cleavage worked out at 0.04.

As for C10U C15G, the self-cleavage was 0.05.

Regarding C10U C15U, the self-cleavage was determined as 0.28.

As for C10U C15A, the self-cleavage was 0.06.

Turning to C10U C18U, the self-cleavage turned out to be 0.34.

Consider C10U C18A, for which the self-cleavage was 0.28.

Take C10U C18G: the self-cleavage is 0.22.

A11C: the self-cleavage was 0.08.

As to C10U G21C, the self-cleavage is 0.19.

C10U G21A: the self-cleavage was 0.68.

On to C10U G21U, for which the self-cleavage is 0.33.

Turning to A11C C37A, the self-cleavage stood at 0.02.

Regarding A11C C37G, the self-cleavage worked out at 0.01.

A11C C37U: the self-cleavage stood at 0.02.

Regarding C10U C37U, the self-cleavage is 0.02.

In the case of C10U C37A, the self-cleavage is 0.02.

As for C10U C37G, the self-cleavage was determined as 0.02.

On to A11C A25C, for which the self-cleavage worked out at 0.09.

As for A11C A25G, the self-cleavage amounted to 0.08.

On to A11C A25U, for which the self-cleavage amounted to 0.09.

In the case of A11C C15G, the self-cleavage is 0.02.

A11C C15A: the self-cleavage turned out to be 0.02.

On to A11C C15U, for which the self-cleavage is 0.03.

Regarding A11C A16C, the self-cleavage came to 0.01.

In the case of A11C A16G, the self-cleavage came to 0.05.

Turning to A11C A16U, the self-cleavage was 0.02.

As to A11C G17U, the self-cleavage came out at 0.03.

Consider A11C G17A, for which the self-cleavage was determined as 0.03.

For the variant A11C G17C, the self-cleavage was found to be 0.02.

Turning to A11C G27A, the self-cleavage worked out at 0.11.

Regarding A11C G27C, the self-cleavage is 0.04.

For the variant C10U A25C, the self-cleavage was determined as 0.21.

As to C10U A25U, the self-cleavage amounted to 0.48.

C10U A25G: the self-cleavage was 0.39.

With A11C A12G, the self-cleavage was determined as 0.04.

For A11C A12U, the self-cleavage is 0.03.

A11C A12C: the self-cleavage is 0.02.

Turning to C10U G29A, the self-cleavage was 0.18.

In the case of C10U G29U, the self-cleavage was 0.39.

Consider C10U G29C, for which the self-cleavage came out at 0.2.

For C10U G19A, the self-cleavage is 0.32.

For the variant C10U G19U, the self-cleavage came to 0.21.

For C10U G19C, the self-cleavage is 0.24.

For the variant C10U U38C, the self-cleavage came out at 0.17.

For the variant C10U U38A, the self-cleavage stood at 0.04.

Take C10U U38G: the self-cleavage is 0.03.

Turning to C10U G27C, the self-cleavage came out at 0.23.

On to C10U G27U, for which the self-cleavage came to 0.31.

For C10U G27A, the self-cleavage was found to be 0.27.

A11C C13G: the self-cleavage worked out at 0.03.

Consider A11C C13A, for which the self-cleavage turned out to be 0.03.

In the case of A11C C13U, the self-cleavage was determined as 0.03.

For the variant A11C A41G, the self-cleavage was determined as 0.03.

In the case of A11C A41U, the self-cleavage worked out at 0.04.

With A11C A41C, the self-cleavage turned out to be 0.01.

In the case of C10U G44C, the self-cleavage turned out to be 0.16.

With C10U G44U, the self-cleavage is 0.13.

As for C10U G44A, the self-cleavage turned out to be 0.15.

As to A11C G22C, the self-cleavage worked out at 0.04.

Regarding A11C G22U, the self-cleavage was determined as 0.07.

With A11C G22A, the self-cleavage was 0.12.

Take C10U G40U: the self-cleavage worked out at 0.06.

As to C10U G40C, the self-cleavage worked out at 0.04.

With C10U G40A, the self-cleavage was determined as 0.02.

Consider C10U A16U, for which the self-cleavage is 0.19.

Consider C10U A16G, for which the self-cleavage was found to be 0.19.

As to C10U A16C, the self-cleavage is 0.06.

Turning to A11C A26C, the self-cleavage is 0.03.

As to A11C A26U, the self-cleavage worked out at 0.11.

As for A11C A26G, the self-cleavage was 0.05.

For C10U C31A, the self-cleavage is 0.13.

With C10U C31U, the self-cleavage was determined as 0.54.

Turning to C10U C31G, the self-cleavage came out at 0.05.

Take A11C A39C: the self-cleavage amounted to 0.02.

As to A11C A39U, the self-cleavage amounted to 0.03.

For the variant A11C A39G, the self-cleavage worked out at 0.03.

As for C10U U28C, the self-cleavage came to 0.13.

For the variant C10U U28A, the self-cleavage stood at 0.16.

With C10U U28G, the self-cleavage worked out at 0.23.

Consider C10U G36A, for which the self-cleavage came to 0.08.

On to C10U G36C, for which the self-cleavage turned out to be 0.05.

In the case of C10U G36U, the self-cleavage worked out at 0.03.

As to C10U U32C, the self-cleavage was 0.1.

Take C10U U32G: the self-cleavage amounted to 0.12.

For C10U U32A, the self-cleavage stood at 0.08.

Consider C10U A39U, for which the self-cleavage worked out at 0.37.

With C10U A39C, the self-cleavage amounted to 0.17.

For C10U A39G, the self-cleavage is 0.08.
